# Test results reported in the supplement of paper PMC9112550, “Optimization of the antimicrobial peptide Bac7 by deep mutational scanning” (BMC Biology, 2022).
# Tested on: Escherichia coli TOP10
# Test: shrunken log2 fold change of peptide-encoding DNA abundance (4.5 h post-induction vs induction); higher = less antimicrobial activity (less host growth inhibition)
# Conditions: time post-induction: 4.5 h; library: site-saturation at positions 5, 18, 19, 20
# 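Also: peptides expressed intracellularly from a pBAD plasmid library in pooled LB shake-flask culture, induced with 0.3% L-arabinose, DNA abundance read by NGS, three biological replicates, DESeq2 with apeglm shrinkage.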
row,Sequence,shrunken log2 fold change
1,RRIRYRPPRLPRPRPRPLLYPRP,-0.94
2,RRIRNRPPRLPRPRPRPGLGPRP,0.611
3,RRIRLRPPRLPRPRPRPEECPRP,0.00698
4,RRIRNRPPRLPRPRPRPTKKPRP,0.0702
5,RRIRRRPPRLPRPRPRPGMYPRP,-0.0527
6,RRIRMRPPRLPRPRPRPNFEPRP,0.422
7,RRIRYRPPRLPRPRPRPMKNPRP,-0.191
8,RRIRKRPPRLPRPRPRPGRFPRP,0.227
9,RRIRPRPPRLPRPRPRPCFNPRP,-0.512
10,RRIRDRPPRLPRPRPRPHEKPRP,-0.0396
11,RRIRPRPPRLPRPRPRPNAAPRP,0.237
12,RRIRLRPPRLPRPRPRPLNQPRP,-0.917
13,RRIRPRPPRLPRPRPRPYYNPRP,-1.11
14,RRIRDRPPRLPRPRPRPERFPRP,0.361
15,RRIRQRPPRLPRPRPRPRIKPRP,0.127
16,RRIRLRPPRLPRPRPRPPEVPRP,-0.0157
17,RRIRMRPPRLPRPRPRPAYFPRP,-0.197
18,RRIRNRPPRLPRPRPRPFNVPRP,0.109
19,RRIRCRPPRLPRPRPRPPAMPRP,0.241
20,RRIRLRPPRLPRPRPRPLLVPRP,-0.12
21,RRIRNRPPRLPRPRPRPHDIPRP,-0.0337
22,RRIRKRPPRLPRPRPRPNGSPRP,0.0677
23,RRIRHRPPRLPRPRPRPGLMPRP,-0.162
24,RRIRQRPPRLPRPRPRPGPLPRP,-0.035
25,RRIRARPPRLPRPRPRPGKWPRP,0.19

row,Sequence,shrunken log2 fold change
1,RRIRIRPPRLPRPRPRPFPVPRP,-0.339
2,RRIRKRPPRLPRPRPRPKWIPRP,-0.111
3,RRIRRRPPRLPRPRPRPPWQPRP,2.01
4,RRIRGRPPRLPRPRPRPMGCPRP,0.0963
5,RRIRVRPPRLPRPRPRPEPHPRP,-0.0157
6,RRIRDRPPRLPRPRPRPAHEPRP,-0.0156
7,RRIRGRPPRLPRPRPRPESGPRP,1.12
8,RRIRIRPPRLPRPRPRPFPAPRP,-0.299
9,RRIRLRPPRLPRPRPRPATNPRP,-0.253
10,RRIRTRPPRLPRPRPRPDFIPRP,-0.547
11,RRIRDRPPRLPRPRPRPHRCPRP,-0.00141
12,RRIRDRPPRLPRPRPRPNAKPRP,0.128
13,RRIRYRPPRLPRPRPRPLECPRP,-0.183
14,RRIRFRPPRLPRPRPRPAKWPRP,0.0975
15,RRIRIRPPRLPRPRPRPVFCPRP,-0.321
16,RRIRARPPRLPRPRPRPKCVPRP,0.463
17,RRIRLRPPRLPRPRPRPNTNPRP,-0.576
18,RRIRIRPPRLPRPRPRPVYLPRP,-0.0309
19,RRIRCRPPRLPRPRPRPLSDPRP,0.0896
20,RRIRIRPPRLPRPRPRPRHFPRP,-0.00457
21,RRIRYRPPRLPRPRPRPLAHPRP,-0.15
22,RRIRTRPPRLPRPRPRPSPAPRP,0.133
23,RRIRDRPPRLPRPRPRPWWSPRP,-0.0691
24,RRIRERPPRLPRPRPRPAFYPRP,-0.32
25,RRIRKRPPRLPRPRPRPPCMPRP,-0.0208

row,Sequence,shrunken log2 fold change
1,RRIRHRPPRLPRPRPRPLMDPRP,-0.974
2,RRIRRRPPRLPRPRPRPGMQPRP,0.245
3,RRIRMRPPRLPRPRPRPAITPRP,0.0226
4,RRIRNRPPRLPRPRPRPKPGPRP,0.235
5,RRIRVRPPRLPRPRPRPANPPRP,-0.21
6,RRIRMRPPRLPRPRPRPFKCPRP,-0.0731
7,RRIRHRPPRLPRPRPRPYLSPRP,-0.221
8,RRIRKRPPRLPRPRPRPPTNPRP,0.654
9,RRIRCRPPRLPRPRPRPLQAPRP,0.646
10,RRIRARPPRLPRPRPRPEWLPRP,1.25
11,RRIRFRPPRLPRPRPRPYFDPRP,-0.489
12,RRIRERPPRLPRPRPRPRSPPRP,0.0194
13,RRIRHRPPRLPRPRPRPNNTPRP,-0.931
14,RRIRTRPPRLPRPRPRPNTCPRP,-0.395
15,RRIRTRPPRLPRPRPRPCVTPRP,-0.208
16,RRIRHRPPRLPRPRPRPKTQPRP,-0.15
17,RRIRMRPPRLPRPRPRPIMTPRP,-0.104
18,RRIRMRPPRLPRPRPRPVHLPRP,-0.0129
19,RRIRVRPPRLPRPRPRPLNTPRP,-0.224
20,RRIRWRPPRLPRPRPRPWNDPRP,0.0222
21,RRIRKRPPRLPRPRPRPCDKPRP,0.000564
22,RRIRWRPPRLPRPRPRPMKNPRP,0.226
23,RRIRRRPPRLPRPRPRPYVKPRP,-0.166
24,RRIRYRPPRLPRPRPRPCRMPRP,-0.0503
25,RRIRCRPPRLPRPRPRPTIAPRP,-0.211
